The results in this text go back to US20240166765A1, “INFLAMMATORY DISEASE TREATMENT USING ANTI-TISSUE FACTOR ANTIBODIES” (Iconic Therapeutics LLC, priority 2020, published 2024).

Holding throughout (assay): Epitope binning, chimeric TF construct mapping (live cell staining assay)
Holding throughout (format): binding

For experiment [1], the target named is T1, chimeric human-rat TF constructs expressed on HEK293 cells (Homo sapiens, UniProt P13726, E127T/E131K/E137D/L136R/N139K/P130R/S129A/T133L/Y126F).
T1 construct: expressed in transfected cells; host or cells: HEK293
Conditions: construct h94-107_r (9); human segment replaced by rat segment. As for the experimental part: (§1) To establish binding of the anti-human TF antibodies to the various TF constructs, HEK293 cells were transfected with a DNA plasmid that co-expresses the TF construct and a green fluorescent protein marker. For a subset of the antibodies, an antibody titration (a 12-point 1:3 dilution series starting at 250 nM) was evaluated on select TF constructs (See international PCT application PCT/US2019/012427 and U.S. utility application Ser. No. 16/959,652, incorporated herein by reference in their entirety). […] Two days after transfection, cells were collected from the tissue culture plate, stained with 15 μg/ml of the indicated anti-TF antibody, washed, stained with anti-human IgG-Fc Alexa Fluor 647 polyclonal antibody, washed, and stained with the viability dye 4′,6-Diamidino-2-Phenylindole, Dihydrochloride. Upon acquisition of 80,000 live events on a flow cytometer, live cells marked with the fluorescent marker were analyzed for the degree of staining by the anti-TF antibody. […] As used herein, the term “live cell staining assay” refers to the antibody binding assay used in this example.
(§2) When “Percentage antibody binding to TF construct relative to hTF” in Tables 51 and 52 was less than 50%, the antibody was considered a non-binder (0) in Tables 53 and 54.

The target in experiment [2] is T2, chimeric human-rat TF constructs expressed on HEK293 cells (Homo sapiens, UniProt P13726, A200N/K201T/N203H).
T2 construct: expressed in transfected cells; host or cells: HEK293
Conditions: construct h167-174_r (3); human segment replaced by rat segment. The protocol:
as §1, §2

Experiment [3] concerns the target T3, chimeric human-rat TF constructs expressed on HEK293 cells (Homo sapiens, UniProt P13726, D177Q/E160K/E162S/F148Y/I184G/K181N/L140I/N156K/N170G/R163F/R168K/S147K/S174T/T144V/T186I/V151G/V155L/W190R/Y188T).
T3 construct: expressed in transfected cells; host or cells: HEK293
Conditions: construct h108-158_r (19); human segment replaced by rat segment. The protocol:
as §1, §2

The target in experiment [4] is T4, chimeric human-rat TF constructs expressed on HEK293 cells (Homo sapiens, UniProt P13726, I184G/T186I/W190R/Y188T).
T4 construct: expressed in transfected cells; host or cells: HEK293
Conditions: construct h152-158_r (4); human segment replaced by rat segment. As for the experimental part:
as §1, §2

For experiment [5], the target named is T5, chimeric human-rat TF constructs expressed on HEK293 cells (Homo sapiens, UniProt P13726, A112W/A121H/D76N/DEL115-116/DUP123-123/E127T/E131K/E137D/E58Q/F108L/F82T/G113R/G75R/INS118HGKETLF/K100N/K47I/K73R/L104E/L125P/L136R/N139K/N50D/P130R/Q101W/Q64Y/S120T/S129A/S79Y/T133L/T72D/V62T/V65T/Y110V/Y126F/Y83G).
T5 construct: expressed in transfected cells; host or cells: HEK293
Conditions: construct h1-107_r (52); human segment replaced by rat segment. The protocol:
as §1, §2

For experiment [6], the target named is T6, chimeric human-rat TF constructs expressed on HEK293 cells (Homo sapiens, UniProt P13726, D177Q/N170G/R168K/S174T).
T6 construct: expressed in transfected cells; host or cells: HEK293
Conditions: construct h133-145_r (4); human segment replaced by rat segment. As for the experimental part: as §1, §2

The target in experiment [7] is T7, chimeric human-rat TF constructs expressed on HEK293 cells (Homo sapiens, UniProt P13726, K197R/S192D/S195T).
T7 construct: expressed in transfected cells; host or cells: HEK293
Particulars: construct h159-166_r (3); human segment replaced by rat segment. As for the experimental part:
as §1, §2

The target of experiment [8] is T8, chimeric human-rat TF constructs expressed on HEK293 cells (Homo sapiens, UniProt P13726, A200N/D212E/E215V/K197R/K201T/N203H/N216S/S192D/S195T/S220F/V221A).
T8 construct: expressed in transfected cells; host or cells: HEK293
Particulars: construct h159-189_r (11); human segment replaced by rat segment. As for the experimental part: as §1, §2

The target of experiment [9] is T9, chimeric human-rat TF constructs expressed on HEK293 cells (Homo sapiens, UniProt P13726, D76N/F108L/F82T/G75R/K100N/K73R/L104E/Q101W/S79Y/T72D/Y83G).
T9 construct: expressed in transfected cells; host or cells: HEK293
Particulars: construct h39-77_r (11); human segment replaced by rat segment. As for the experimental part:
as §1, §2

The target of experiment [10] is T10, chimeric human-rat TF constructs expressed on HEK293 cells (Homo sapiens, UniProt P13726, A200N/K197R/K201T/N203H/S192D/S195T).
T10 construct: expressed in transfected cells; host or cells: HEK293
Particulars: construct h159-174_r (6); human segment replaced by rat segment. As for the experimental part: as §1, §2

Experiment [11] has as its target T11, chimeric human-rat TF constructs expressed on HEK293 cells (Homo sapiens, UniProt P13726, N203H/T229K).
T11 construct: expressed in transfected cells; host or cells: HEK293
Particulars: construct hTF_N171H_T197K. As for the experimental part:
as §1, §2

The target in experiment [12] is T12, chimeric human-rat TF constructs expressed on HEK293 cells (Homo sapiens, UniProt P13726, D76N/E58Q/F108L/F82T/G75R/K100N/K47I/K73R/L104E/N50D/Q101W/Q64Y/S79Y/T72D/V62T/V65T/Y83G).
T12 construct: expressed in transfected cells; host or cells: HEK293
Particulars: construct h1-77_r (25); human segment replaced by rat segment. The protocol: as §1, §2

Experiment [13] concerns chimeric human-rat TF constructs expressed on HEK293 cells. The protocol: as §1, §2
Experiment [14] concerns the target T13, chimeric human-rat TF constructs expressed on HEK293 cells (Homo sapiens, UniProt P13726, I184G/K181N/T186I/W190R/Y188T).
T13 construct: expressed in transfected cells; host or cells: HEK293
Conditions: construct h146-158_r (5); human segment replaced by rat segment. The protocol: as §1, §2

Experiment [15] deals with T14, chimeric human-rat TF constructs expressed on HEK293 cells (Homo sapiens, UniProt P13726, D177Q/S174T).
T14 construct: expressed in transfected cells; host or cells: HEK293
Conditions: construct h140-145_r (2); human segment replaced by rat segment. As for the experimental part: as §1, §2

Turning to TF-011, the “Antibody binding to TF construct” value was 0 (less than 50%, the antibody was considered a non-binder (0)) in experiment [1]; 1 (between 50% and 150%, the antibody was considered a binder (1)) in experiment [2]; 1 (between 50% and 150%, the antibody was considered a binder (1)) in experiment [3]; 1 (between 50% and 150%, the antibody was considered a binder (1)) in [4]; 0 (less than 50%, the antibody was considered a non-binder (0)) in [5]; 1 (between 50% and 150%, the antibody was considered a binder (1)) in experiment [6]. In addition, the “Antibody binding to TF construct” value in [7] was 1 (between 50% and 150%, the antibody was considered a binder (1)); in [8], 1 (between 50% and 150%, the antibody was considered a binder (1)); in [9], 0 (less than 50%, the antibody was considered a non-binder (0)); in experiment [10] it was 1 (between 50% and 150%, the antibody was considered a binder (1)); in experiment [11], 1 (between 50% and 150%, the antibody was considered a binder (1)); in experiment [12] it was 0 (less than 50%, the antibody was considered a non-binder (0)). Besides, the “Antibody binding to TF construct” value was 0 (less than 50%, the antibody was considered a non-binder (0)) in [13] (Table 53, construct rTF); 0 (less than 50%, the antibody was considered a non-binder (0)) in [13] (Table 54, construct rTF); 0 (less than 50%, the antibody was considered a non-binder (0)) in [13] (construct h78-107_r (21), human segment replaced by rat segment); 1 (between 50% and 150%, the antibody was considered a binder (1)) in [13] (construct h108-219_r (46), human segment replaced by rat segment); 1 (between 50% and 150%, the antibody was considered a binder (1)) in experiment [13] (construct h159-219_r (27), human segment replaced by rat segment); 0 (less than 50%, the antibody was considered a non-binder (0)) in experiment [13] (construct r141-194_h (rat amino acid segment replaced by human segment, 20 amino acid changes)). Besides, the “Antibody binding to TF construct” value in experiment [14] was 1 (between 50% and 150%, the antibody was considered a binder (1)); in [15], 1 (between 50% and 150%, the antibody was considered a binder (1)). For the same substance, in experiment [13] (chimeric human-rat TF constructs), the “Constructs not bound by antibody” value is given as “rTF, h1-107_r, h1-77_r, h39-77_r, h78-107_r, h78-107_r.v2, h94-107_r”.
